Results: publication PMC9593060

Target: T1, YycF (Staphylococcus aureus (ATCC29213?)) (UniProt Q9RDT5)
T1 sequence: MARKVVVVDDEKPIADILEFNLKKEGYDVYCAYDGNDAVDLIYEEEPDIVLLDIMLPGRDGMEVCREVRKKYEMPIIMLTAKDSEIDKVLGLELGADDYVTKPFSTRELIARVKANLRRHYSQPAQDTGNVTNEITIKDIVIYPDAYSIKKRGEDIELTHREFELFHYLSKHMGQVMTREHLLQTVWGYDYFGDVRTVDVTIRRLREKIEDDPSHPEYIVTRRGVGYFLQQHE
Assay: EMSA
Settings: binding buffer not stated

Sequence: TGTGAAATATCAATTTGATTGAAAATTAGACAAAAATAAAGAAATGACTTCAACATAATCATCAAAGTCATTTCGTTGAGTTGACTACTGCCAAGATAACATCGTCACGACTAGGACATTGAATTATGTCCCAGACTCATCGACT (double strand) [PcodY (codY promoter region)]
- binding: binds
